From US20050234225A1

Target: KDR-alkaline phosphatase (AP) soluble fusion protein (human) (UniProt P35968)
Test: BIAcore SPR, KDR immobilized

Sequence of KDR-alkaline phosphatase (AP) soluble fusion protein (human) (P35968 20-764): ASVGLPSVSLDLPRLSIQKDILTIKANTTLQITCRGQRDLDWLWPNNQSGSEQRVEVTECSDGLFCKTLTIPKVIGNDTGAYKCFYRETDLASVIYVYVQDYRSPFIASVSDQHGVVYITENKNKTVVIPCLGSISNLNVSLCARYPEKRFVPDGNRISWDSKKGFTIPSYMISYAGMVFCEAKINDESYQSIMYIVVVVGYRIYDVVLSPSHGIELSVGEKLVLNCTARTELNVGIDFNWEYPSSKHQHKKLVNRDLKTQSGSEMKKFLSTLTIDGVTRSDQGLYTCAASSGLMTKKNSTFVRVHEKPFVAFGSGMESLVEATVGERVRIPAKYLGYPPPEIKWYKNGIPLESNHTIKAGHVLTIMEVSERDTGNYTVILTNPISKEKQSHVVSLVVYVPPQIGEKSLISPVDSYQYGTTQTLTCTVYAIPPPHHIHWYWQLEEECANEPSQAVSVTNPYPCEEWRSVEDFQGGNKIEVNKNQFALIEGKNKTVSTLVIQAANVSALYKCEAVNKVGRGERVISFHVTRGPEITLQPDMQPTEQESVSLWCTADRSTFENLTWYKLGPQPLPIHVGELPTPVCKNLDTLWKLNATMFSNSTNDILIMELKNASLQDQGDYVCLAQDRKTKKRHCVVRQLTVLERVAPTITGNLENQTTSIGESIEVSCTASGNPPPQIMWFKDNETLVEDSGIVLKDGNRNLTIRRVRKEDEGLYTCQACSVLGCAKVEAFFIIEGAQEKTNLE

- Kd: 1.4 nM
- koff: 0.0001 s⁻¹
- kon: 77000 M⁻¹ s⁻¹
B1: p1C11 scFv (scFv, from another filing)
scFv: QVKLQQSGAELVGSGASVKLSCTTSGFNIKDFYMHWVKQRPEQGLEWIGWIDPENGDSDYAPKFQGKATMTADSSSNTAYLQLSSLTSEDTAVYYCNAYYGDYEGYWGQGTTVTVSSGGGGSGGGGSGGGGSDIELTQSPAIMSASPGEKVTITCSASSSVSYMHWFQQKPGTSPKLWIYSTSNLASGVPARFSGSGSGTSYSLTISRMEAEDAATYYCQQRSSYPFTFGSGTKLEIK
